Measured values from patent US20230250154A1.

Legend:
ADAMTS5 (human) = ADAMTS5 (human) (UniProt Q9UNA0); experiment: cell-based or functional assay
ADAMTS4 (human) = ADAMTS4 (human) (UniProt O75173); experiment: cell-based or functional assay
Sequence of ADAMTS4 (human) (O75173 213-685 limits assumed): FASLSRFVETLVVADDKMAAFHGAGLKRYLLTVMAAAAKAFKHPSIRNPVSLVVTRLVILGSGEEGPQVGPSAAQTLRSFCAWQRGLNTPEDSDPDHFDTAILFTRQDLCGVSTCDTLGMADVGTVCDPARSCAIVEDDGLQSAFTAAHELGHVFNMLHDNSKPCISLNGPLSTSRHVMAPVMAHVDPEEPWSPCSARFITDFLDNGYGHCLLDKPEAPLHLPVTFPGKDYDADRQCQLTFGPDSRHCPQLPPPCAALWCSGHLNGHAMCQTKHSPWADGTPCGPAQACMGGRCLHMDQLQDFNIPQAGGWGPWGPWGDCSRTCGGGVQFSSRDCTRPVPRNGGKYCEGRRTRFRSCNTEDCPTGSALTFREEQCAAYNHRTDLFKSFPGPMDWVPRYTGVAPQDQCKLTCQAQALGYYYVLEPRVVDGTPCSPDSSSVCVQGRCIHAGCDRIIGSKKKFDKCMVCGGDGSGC

Sequence of ADAMTS5 (human) (Q9UNA0 262-622 limits assumed): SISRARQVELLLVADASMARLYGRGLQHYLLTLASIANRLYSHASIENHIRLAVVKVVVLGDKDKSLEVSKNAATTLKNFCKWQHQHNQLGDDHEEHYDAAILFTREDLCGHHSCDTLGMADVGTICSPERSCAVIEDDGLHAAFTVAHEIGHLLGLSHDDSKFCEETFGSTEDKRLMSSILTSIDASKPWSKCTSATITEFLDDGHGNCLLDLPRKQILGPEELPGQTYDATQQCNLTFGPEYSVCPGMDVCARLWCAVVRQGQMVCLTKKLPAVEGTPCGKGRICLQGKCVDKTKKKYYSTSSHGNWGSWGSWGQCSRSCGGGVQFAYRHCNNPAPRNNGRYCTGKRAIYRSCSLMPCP

With “purified human A2M (from UniProt P01023 24-1474)” the IC50, inhibition of cartilage catabolism in bovine cartilage explants (ADAMTS5 (human)) was 7000 µg/mL, the IC50 needed to inhibit cartilage catabolism (ADAMTS5 (human)) was 7 µg/mL and the Maximum inhibition of cartilage catabolism in bovine cartilage explants (ADAMTS5 (human)) was 90%. It also gave an IC50 needed to inhibit cartilage catabolism (ADAMTS4 (human)) of 3 µg/mL.
